Key:
[1] = test system: T1, peptide LGGSGRSANAILE
T1 sequence: LGGSGRSANAILE

[2] = test system: phage clone 39, displaying hexamer RSAVVK
[3] = test system: T2, peptide LGGSGRSATRDLE
T2 sequence: LGGSGRSATRDLE

[4] = test system: phage clone 35, displaying hexamer RSATRD
[5] = test system: T3, peptide SGRS
T3 sequence: SGRS

[6] = test system: phage clone 38, displaying hexamer RRAVSN
[7] = test system: T4, peptide (V) of Table 1, YGRS
T4 sequence: YGRS

[8] = test system: T5, peptide (VI) of Table 1, RGRK
T5 sequence: RGRK

[9] = test system: T6, peptide LGGRGRSANAILE
T6 sequence: LGGRGRSANAILE

[10] = test system: T7, peptide (VII) of Table 1, FRGRK
T7 sequence: FRGRK

[11] = test system: T8, peptide LGQRGRSANAILE
T8 sequence: LGQRGRSANAILE

[12] = target: fusion of maltose binding protein, QRGRSA and the HY4 gene product of Arabidopsis thaliana (UniProt Q43125)
Sequence of fusion of maltose binding protein, QRGRSA and the HY4 gene product of Arabidopsis thaliana (Q43125 other isoform, or with tags, fused parts or gaps): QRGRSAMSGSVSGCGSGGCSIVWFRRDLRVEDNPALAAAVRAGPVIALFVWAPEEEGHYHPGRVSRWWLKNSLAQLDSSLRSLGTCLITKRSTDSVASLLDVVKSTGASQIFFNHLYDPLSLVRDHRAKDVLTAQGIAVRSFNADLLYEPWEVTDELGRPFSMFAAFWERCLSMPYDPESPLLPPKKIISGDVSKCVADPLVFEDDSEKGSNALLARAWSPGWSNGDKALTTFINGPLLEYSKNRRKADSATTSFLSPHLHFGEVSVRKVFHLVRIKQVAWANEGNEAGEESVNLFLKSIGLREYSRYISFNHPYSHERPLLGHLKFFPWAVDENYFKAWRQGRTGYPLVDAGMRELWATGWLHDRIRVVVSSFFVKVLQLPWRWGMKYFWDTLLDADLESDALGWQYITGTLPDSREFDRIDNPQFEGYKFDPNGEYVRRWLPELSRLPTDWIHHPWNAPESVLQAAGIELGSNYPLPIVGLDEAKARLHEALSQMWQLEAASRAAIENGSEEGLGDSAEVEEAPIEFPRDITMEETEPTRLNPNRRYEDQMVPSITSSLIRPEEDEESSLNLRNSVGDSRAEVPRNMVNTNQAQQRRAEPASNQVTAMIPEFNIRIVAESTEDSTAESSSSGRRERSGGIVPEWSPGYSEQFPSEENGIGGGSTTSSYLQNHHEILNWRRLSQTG

[13] = test system: T9, peptide LGGSGRKASLSLE
T9 sequence: LGGSGRKASLSLE

[14] = test system: T10, peptide SGRSA
T10 sequence: SGRSA

[15] = test system: phage 33, displaying hexamer RSANAI
[16] = test system: T11, peptide (III) of Table 1, LGGSGERARGALE
T11 sequence: LGGSGERARGALE

[17] = test system: T12, peptide (I), native cleavage sequence from plasminogen
T12 sequence: KKSPGRVVGGSVAH

[18] = test system: T13, peptide LGGYGRSANAILE
T13 sequence: LGGYGRSANAILE

[19] = test system: T14, peptide (II) of Table 1, LGGSGQRGRKALE
T14 sequence: LGGSGQRGRKALE

[20] = test system: phage clone 37, displaying hexamer RKASLS
[21] = test system: T15, peptide GSGKS
T15 sequence: GSGKS

[22] = test system: T16, peptide LGGSGRNAQVRLE
T16 sequence: LGGSGRNAQVRLE

[23] = test system: T17, peptide SGKS
T17 sequence: SGKS

[24] = test system: T18, peptide (IV) of Table 1, LGGSGHYGRSGLE
T18 sequence: LGGSGHYGRSGLE

[25] = test system: phage clone 36, displaying hexamer RSAKVD
[26] = test system: phage clone 40, displaying hexamer RSSSSH
[27] = test system: phage clone 34, displaying hexamer RNAQVR
[28] = test system: T1, peptide LGGSGRSANAILE; assay: kinetics of peptide hydrolysis by the enzyme, HPLC, Eadie-Hofstee
[29] = test system: T2, peptide LGGSGRSATRDLE; assay: as above
[30] = test system: T6, peptide LGGRGRSANAILE; assay: as above
[31] = test system: T8, peptide LGQRGRSANAILE; assay: as above
[32] = test system: T9, peptide LGGSGRKASLSLE; assay: as above
[33] = test system: T11, peptide (III) of Table 1, LGGSGERARGALE; assay: as above
[34] = test system: T12, peptide (I), native cleavage sequence from plasminogen; assay: as above
[35] = test system: T13, peptide LGGYGRSANAILE; assay: as above
[36] = test system: T14, peptide (II) of Table 1, LGGSGQRGRKALE; assay: as above
[37] = test system: T16, peptide LGGSGRNAQVRLE; assay: as above
[38] = test system: T18, peptide (IV) of Table 1, LGGSGHYGRSGLE; assay: as above
[39] = test system: T1, peptide LGGSGRSANAILE; assay: kinetics of peptide hydrolysis by u-PA, HPLC, Eadie-Hofstee
[40] = test system: T3, peptide SGRS; assay: kinetics of peptide hydrolysis by the enzyme, HILIC HPLC, Eadie-Hofstee
[41] = test system: T4, peptide (V) of Table 1, YGRS; assay: as above
[42] = test system: T5, peptide (VI) of Table 1, RGRK; assay: as above
[43] = test system: T7, peptide (VII) of Table 1, FRGRK; assay: as above
[44] = test system: T10, peptide SGRSA; assay: as above
[45] = test system: T15, peptide GSGKS; assay: as above
[46] = test system: T17, peptide SGKS; assay: as above

Question: Which results are given for “urokinase-type plasminogen activator (u-PA)”?
Answer: fold improvement as substrate against control peptide (I) [1]: by factors of 840-5300; fold increase of kcat against control peptide (I) [1]: increased by a factor of more than 940; kcat [1]: 2.83 s⁻¹; kcat/Km [1]: 4700 M⁻¹ s⁻¹; dot blot analysis under the most stringent conditions of digestion [2]: proved to be particularly labile u-PA substrates; fold improvement as substrate against control peptide (I) [3]: by factors of 840-5300; kcat [3]: 0.54 s⁻¹; kcat/Km [3]: 740 M⁻¹ s⁻¹; dot blot analysis under the most stringent conditions of digestion [4]: proved to be particularly labile u-PA substrates; kcat [5]: 2.3 s⁻¹; kcat/Km [5]: 1100 M⁻¹ s⁻¹; dot blot analysis under the most stringent conditions of digestion [6]: proved to be particularly labile u-PA substrates; kcat [7]: 2.6 s⁻¹; kcat/Km [7]: 230 M⁻¹ s⁻¹; kcat [8]: 0.76 s⁻¹; kcat/Km [8]: 16 M⁻¹ s⁻¹; kcat [9]: 0.08 s⁻¹; kcat/Km [9]: 67 M⁻¹ s⁻¹; kcat [10]: 0.14 s⁻¹; kcat/Km [10]: 16 M⁻¹ s⁻¹; kcat [11]: 0.068 s⁻¹; kcat/Km [11]: 45 M⁻¹ s⁻¹; cleavage of fusion protein, SDS-PAGE [12]: whereas u-PA did not; kcat [13]: 1.14 s⁻¹; kcat/Km [13]: 1010 M⁻¹ s⁻¹; kcat [14]: 3.7 s⁻¹; kcat/Km [14]: 1200 M⁻¹ s⁻¹; dot blot analysis under the most stringent conditions of digestion [15]: proved to be particularly labile u-PA substrates; kcat [16]: 0.004 s⁻¹; kcat/Km [16]: 4 M⁻¹ s⁻¹; kcat [17]: 0.003 s⁻¹; kcat/Km [17]: 0.88 M⁻¹ s⁻¹; kcat [18]: 0.7 s⁻¹; kcat/Km [18]: 318 M⁻¹ s⁻¹; kcat [19]: 0.02 s⁻¹; kcat/Km [19]: 9.2 M⁻¹ s⁻¹; dot blot analysis under the most stringent conditions of digestion [20]: proved to be particularly labile u-PA substrates; kcat [21]: 0.82 s⁻¹; kcat/Km [21]: 193 M⁻¹ s⁻¹; kcat [22]: 3.69 s⁻¹; kcat/Km [22]: 3200 M⁻¹ s⁻¹; fold decrease of catalytic efficiency against peptide (VI) SGRS [23]: by a factor of 7 for u-PA; kcat [23]: 1.22 s⁻¹; kcat/Km [23]: 154 M⁻¹ s⁻¹; kcat [24]: 0.059 s⁻¹; kcat/Km [24]: 15 M⁻¹ s⁻¹; dot blot analysis under the most stringent conditions of digestion [25]: proved to be particularly labile u-PA substrates; dot blot analysis under the most stringent conditions of digestion [26]: proved to be particularly labile u-PA substrates; dot blot analysis under the most stringent conditions of digestion [27]: proved to be particularly labile u-PA substrates; Km [28]: 603 µM; Km [29]: 733 µM; Km [30]: 1200 µM; Km [31]: 1500 µM; Km [32]: 1130 µM; Km [33]: 970 µM; Km [34]: 3400 µM; Km [35]: 2200 µM; Km [36]: 2180 µM; Km [37]: 1160 µM; Km [38]: 3800 µM; fold reduction of Km against control peptide (I) [39]: reduced by a factor of 5.6; Km [40]: 2100 µM; Km [41]: 11400 µM; Km [42]: 46500 µM; Km [43]: 8600 µM; Km [44]: 3100 µM; Km [45]: 4250 µM; Km [46]: 7900 µM
